Measured values reported in US20200157174A1 (DRAGONFLY THERAPEUTICS, published 2020).
Where a chain is given by its changes, count along the chain named. Each block holds one binder with its values, some of them ahead of it.

Assays:
Test in all cases: ELISA on coated NKG2D-Fc;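 note: titrated NKG2D-binding domains on plate-bound human, mouse or cynomolgus NKG2D ectodomain–human IgG1 Fc fusions, detected with HRP anti-human kappa secondary and TMB, absorbance at 450 nm corrected at 540 nm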
[1] = biological target: T1, recombinant human NKG2D-Fc (human, UniProt P26718 73-216)
T1 construct: extracellular domain; also called human NKG2D-Fc fusion protein; NKG2D-Fc-biotin; not shown: human IgG1 Fc domain
T1 sequence (looked up): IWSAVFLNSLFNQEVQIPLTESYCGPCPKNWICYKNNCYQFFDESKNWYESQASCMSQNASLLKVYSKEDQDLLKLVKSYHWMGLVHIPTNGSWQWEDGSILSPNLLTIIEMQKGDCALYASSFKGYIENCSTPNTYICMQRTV

[2] = biological target: T2, recombinant cynomolgus NKG2D-Fc (cynomolgus; human, UniProt P61252 73-216)
T2 construct: extracellular domain; also called cynomolgus NKG2D-Fc fusion protein; not shown: human IgG1 Fc domain
T2 sequence (looked up): T1 sequence (looked up) with D43N, T133I

[3] = biological target: T3, recombinant mouse NKG2D-Fc (mouse; human, UniProt O54709 90-232)
T3 construct: extracellular domain; also called mouse NKG2D-Fc fusion protein; Mouse NKG2D-Fc-biotin; not shown: human IgG1 Fc domain
T3 sequence (looked up): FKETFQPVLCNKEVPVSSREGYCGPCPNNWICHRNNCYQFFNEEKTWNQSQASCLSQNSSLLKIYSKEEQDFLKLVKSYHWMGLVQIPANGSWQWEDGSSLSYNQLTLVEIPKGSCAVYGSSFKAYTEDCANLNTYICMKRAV

binding result [1]: binds | binding result [2]: binds | binding result [3]: binds
B1: ADI-27749 (antibody, V domains shown)
VH: EVQLVESGGGLVKPGGSLRLSCAASGFTFSSYSMNWVRQAPGKGLEWVSSISSSSSYIYYADSVKGRFTISRDNAKNSLYLQMNSLRAEDTAVYYCARGAPMGAAAGWFDPWGQGTLVTVSS
VL: DIQMTQSPSSVSASVGDRVTITCRASQGISSWLAWYQQKPGKAPKLLIYAASSLQSGVPSRFSGSGSGTDFTLTISSLQPEDFATYYCQQGVSFPRTFGGGTKVEIK
notes: also called A49

binding result [1]: binds | binding result [2]: binds | binding result [3]: binds
B2: ADI-29378 (antibody, V domains shown)
VH: QVQLVQSGAEVKKPGASVKVSCKASGYTFTSYYMHWVRQAPGQGLEWMGIINPSGGSTSYAQKFQGRVTMTRDTSTSTVYMELSSLRSEDTAVYYCAREGAGFAYGMDYYYMDVWGKGTTVTVSS
VL: EIVLTQSPATLSLSPGERATLSCRASQSVSSYLAWYQQKPGQAPRLLIYDASNRATGIPARFSGSGSGTDFTLTISSLEPEDFAVYYCQQSDNWPFTFGGGTKVEIK
notes: also called E78
